Laboratory results from patent US20250228957A1 (BIOHAVEN THERAPEUTICS, published 2025).

Experiments:
Total IgA = assay: cell-based or functional assay
[1] = biological target: Deglycosylated IgA (dg-IgA) (human, UniProt P01876-1 1-353, Human serum IgA was treated with PNGase, neuraminidase, and galactosidase; conjugated to Alexa Fluor 594 in the cell uptake assays); assay: cell-based or functional assay
Sequence of Deglycosylated IgA (dg-IgA) (P01876 other isoform, or with tags, fused parts or gaps): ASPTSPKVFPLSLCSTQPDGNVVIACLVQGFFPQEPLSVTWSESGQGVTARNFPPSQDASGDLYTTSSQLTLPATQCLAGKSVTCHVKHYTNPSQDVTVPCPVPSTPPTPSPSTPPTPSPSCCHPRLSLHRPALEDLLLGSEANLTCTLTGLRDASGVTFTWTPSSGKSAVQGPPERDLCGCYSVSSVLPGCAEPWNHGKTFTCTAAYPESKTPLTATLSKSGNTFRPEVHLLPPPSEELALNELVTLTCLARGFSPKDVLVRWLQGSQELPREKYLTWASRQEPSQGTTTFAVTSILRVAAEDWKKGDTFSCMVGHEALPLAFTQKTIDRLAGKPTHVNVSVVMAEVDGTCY

B1: ABT030 (chimeric LALA PA mutant Km55 antibody) (antibody, human IgG1, kappa, L234A L235A, V domains shown)
VH: ELQLQESGPGLVKPSQSLSLTCSVTGYSIRSNYWGWIRKFPGNKMEWMGYITYSGGTYYNPSLKSRISITRDTSKNQFFLQLTSVTTEDTATYYCTRWGDWYFDFWGPGTKVTVSP
VL: DVVLTQTPPPLSVAIGQSVSISCKSSQSLVHTDGKTYLHWLLQSPGQSPKLLIYQVSNLGSGVPDRFSGTGSQKDFTLKISRVEAEDLGVYYCVQATHFPLTFGIGTKLELQR
For B1, the “EC50, Assay #1, uptake of A594-labelled cargo by HEK293 (+ASGPR) cells” value (Total IgA) was 7.15 nM, the “EC50, Assay #1, uptake of A594-labelled cargo by HEK293 (+ASGPR) cells” value [1] was 0.353 nM and the “EC50, Assay #3, uptake of A594-labelled cargo by HEK293 (+ASGPR) cells” value [1] was 3.53 nM. For the same binder, the “S/N, Assay #1, uptake of A594-labelled cargo by HEK293 (+ASGPR) cells” value [1] was 4.3 signal-to-noise ratio, the “S/N, Assay #2, uptake of A594-labelled cargo by HEK293 (+ASGPR) cells” value [1] was 3.7 signal-to-noise ratio and the “S/N, Assay #3, uptake of A594-labelled cargo by HEK293 (+ASGPR) cells” value [1] was 7.1 signal-to-noise ratio.
